Columns and labels:
带组氨酸标签的PD-L1抗原 = 带组氨酸标签的PD-L1抗原 (UniProt Q9NZQ7); assay: Biacore 3000 SPR, antibody captured by anti-human IgG on CM5, PD-L1-His as analyte
PD-L1 on 293T-PD-L1细胞 [1] = target: T1, PD-L1 on 293T-PD-L1细胞 (human, UniProt Q9NZQ7 19-290); assay: FACS on 293T-PD-L1 cells
T1 construct: whole, on cells; Construct not described

PD-L1-ECD-hFc [2] = target: T2, PD-L1-ECD-hFc (human, UniProt Q9NZQ7 19-238); assay: ELISA, PD-L1-ECD-hFc coated
T2 construct: extracellular domain; Coated on the ELISA plate; also called PD-L1-hFc; PD-L1-hFc蛋白; not shown: hFc: human Fc
T2 sequence (Q9NZQ7 19-238): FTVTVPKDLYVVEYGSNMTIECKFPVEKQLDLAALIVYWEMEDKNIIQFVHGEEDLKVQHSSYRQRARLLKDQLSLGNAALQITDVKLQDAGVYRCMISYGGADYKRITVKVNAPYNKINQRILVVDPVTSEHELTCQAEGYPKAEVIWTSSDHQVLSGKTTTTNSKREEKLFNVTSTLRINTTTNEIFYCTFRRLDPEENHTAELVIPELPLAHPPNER

PD-L1 on 293T-PD-L1细胞 [3] = target: T1, PD-L1 on 293T-PD-L1细胞; assay: competition FACS on 293T-PD-L1 cells, competitor PD-1-biotin
PD-L1-ECD-hFc [4] = target: T2, PD-L1-ECD-hFc; assay: competition ELISA, PD-L1-ECD-hFc coated, competitor PD-1-biotin

T1 sequence (Q9NZQ7 19-290): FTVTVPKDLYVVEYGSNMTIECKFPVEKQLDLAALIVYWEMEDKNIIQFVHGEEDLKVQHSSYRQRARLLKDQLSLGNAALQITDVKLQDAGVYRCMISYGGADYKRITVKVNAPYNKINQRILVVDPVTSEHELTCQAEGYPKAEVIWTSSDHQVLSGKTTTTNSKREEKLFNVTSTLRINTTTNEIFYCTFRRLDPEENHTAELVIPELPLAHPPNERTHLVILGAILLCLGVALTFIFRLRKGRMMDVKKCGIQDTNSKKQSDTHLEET

| Binder | fold increase of affinity against humanized 10E9C7G2 (带组氨酸标签的PD-L1抗原) | EC50 (PD-L1 on 293T-PD-L1细胞 [1]) [µg/mL] | EC50 (PD-L1-ECD-hFc [2]) [µg/mL] | IC50 (PD-L1 on 293T-PD-L1细胞 [3]) [µg/mL] | IC50 (PD-L1-ECD-hFc [4]) [µg/mL] | fold increase of affinity against humanized 6C8D8 (带组氨酸标签的PD-L1抗原) |
| --- | --- | --- | --- | --- | --- | --- |
| 亲和力成熟的人源化10E9C7G2抗体(重链Seq ID 48, 轻链Seq ID 50) (antibody, V domains shown) VH: QVQLQQSGPGLVKPSQTLSLTCAISGDSVSSGYWNWIRQSPSRGLEYMGYISYTGSTYYSLSLKSRITINRDTSKNQYSLQLNSVTPEDTAVYYCARGDYGSDWPPWFAYWGQGTTVTVSS VL: DIQMTQSPSSLSASVGDRVTITCSASISISSNSLQWYQQKPGKAPKLLIYRTTNLPSGVPSRFSGSGSGTDYTLTISSLQPEDFATYYCQQSGGLPLTFGQGTKLEIK | 7.2 倍 (fold) |  |  |  |  |  |
| 10E9C7G2人源化完整抗体 (antibody, human IgG1, kappa, V domains shown, Humanized IgG1; expressed in 293 cells; also called hu10E9C7G2; 人源化的10E9C7G2抗体) VH: QVQLQQSGPGLVKPSQTLSLTCAISGDSITSGYWNWIRQSPSRGLEYMGYISYTGSTYYNLSLKSRITINRDTSKNQYSLQLNSVTPEDTAVYYCARGDYGSDWPPWFAYWGQGTTVTVSS VL: DIQMTQSPSSLSASVGDRVTITCSASSSISSNSLQWYQQKPGKAPKLLIYRTTNLPSGVPSRFSGSGSGTDYTLTISSLQPEDFATYYCQQSSGLPLTFGQGTKLEIKR |  | 0.0392 | 0.000684 | 0.0327 | 0.147 |  |
| 亲和力成熟的人源化10E9C7G2抗体(重链Seq ID 49, 轻链Seq ID 50) (antibody, V domains shown) VH: QVQLQQSGPGLVKPSQTLSLTCAISGDSVSSGYWNWIRQSPSRGLEYMGYISYTGSTYYDLSLKSRITINRDTSKNQYSLQLNSVTPEDTAVYYCARGDYGSDWPPWFAYWGQGTTVTVSS VL: DIQMTQSPSSLSASVGDRVTITCSASISISSNSLQWYQQKPGKAPKLLIYRTTNLPSGVPSRFSGSGSGTDYTLTISSLQPEDFATYYCQQSGGLPLTFGQGTKLEIK | 4.8 倍 (fold) |  |  |  |  |  |
| 亲和力成熟的人源化6C8D8抗体(重链Seq ID 43, 轻链Seq ID 44) (antibody, V domains shown) VH: QITLKESGPTLVKPTQTLTLTCTVSGFSLTSYDISWIRQPPGKALEWLGVIWTGGGTTYNSAFMSRLTITKDNSKNQVVLTMTNMDPVDTATYYCVRGRDWDFDYWGQGTLVTVSS VL: EIVLTQSPDFQSVTPKEKVTITCRASQSIGTSIHWYQQKPDQSPKLLIKYVSESISGVPSRFSGSGSGTDFTLTINSLEAEDAATYYCQQSNSWPFTFGQGTKLEIK |  |  |  |  |  | 9.25 倍 (fold) |
| 6C8D8人源化完整抗体 (antibody, human IgG1, kappa, V domains shown, Humanized IgG1; expressed in 293 cells; also called hu6C8D8; 人源化的6C8D8抗体) VH: QITLKESGPTLVKPTQTLTLTCTVSGFSLTSYDISWIRQPPGKALEWLGVIWTGGGTNYNSAFMSRLTITKDNSKNQVVLTMTNMDPVDTATYYCVRGRDWDFDYWGQGTLVTVSS VL: EIVLTQSPDFQSVTPKEKVTITCRASQSIGTSIHWYQQKPDQSPKLLIKYASESISGVPSRFSGSGSGTDFTLTINSLEAEDAATYYCQQSNSWPFTFGQGTKLEIKR |  | 0.0413 | 0.00224 | 0.0437 | 0.139 |  |
| 6F9B1A6人源化完整抗体 (antibody, human IgG1, kappa, V domains shown, Humanized IgG1; expressed in 293 cells; also called hu6F9B1A6; 人源化的6F9B1A6抗体) VH: QVQLVQSGAEVKKPGSSVKVSCKASGYTFIGYTVHWVRQAPGQGLEWIGWFYPGSGSIKYNEKFKDRATLTADKSTSTVYMELSSLRSEDTAVYYCARHGTGKFNYFDVWGQGTTVTVSS VL: DIQLTQSPSFLSASVGDRVTITCRASSTVSYMHWYQQKPGKAPKPWIYATFNLASGVPSRFSGSGSGTEYTLTISSLQPEDFATYYCQPWSSYPLTFGQGTKLEIKR |  | 0.0412 | 0.00448 | 0.0365 | 0.108 |  |

Source: patent CN110903391A (DONGDA BIOTECHNOLOGY SUZHOU CO LTD, dated 2020)
